# Results published in the DeepSol protein solubility set.
# Assay: soluble on expression in E. coli; label from the status in PepcDB or PDB records
row,Sequence,soluble on expression in E. coli
1,MGSDKIHHHHHHMKFFSLADEAEFKSIIISKNKAVDVIGSKLGGQVVSFSDEWFASAENLIQPTAPIRDPTRFVHSGAWYDGWETRRHNEMEYDWVIIKMGVAAAHIIGGEIDTAFFNGNHAPFVSIEALYDEGEEGNIVEDDSRWVEIVEKFECGPSQRHLFVRGNGLTKERFTHIKLKMYPDGGIARFRLYGRVVPPELKTKDHIIDLAYVCNGAVALKYSDQHFGSVDNLLLPGRGHDMSDGWETKRSRQPGHTDWAVIQLGRESSFIEKIIVDTAHFRGNFPQFITVEGCLKESESSENTGEGTWVELVGKSKTGPDKEHVYEIRKSIRVSHVKLTIIPDGGVKRIRVWGY,soluble
2,GSHMLKEVWEELDGLDPNRFNPKTFFILHDINSDGVLDEQELEALFTKELEKVYDPKNEEDDMREMEEERLRMREHVMKNVDTNQDRLVTLEEFLASTQRKEF,soluble
3,MGSDKIHHHHHHMREYIKEGIKLAVTNIPEDVVSAIREALEREESKIAKYNLEMILKAIDISRKEGIPVCQDTGTPIFFVRTNGPINKIYDEIVKGVEIATREVPLRPNALHVLDGKVIGNVPEVHFEPGKETLISILMKGGGSENCTALFPLTPAEGLEGVKNKVIEHVQSCGGKPCPPIIVGIGIASPAEKAIILAKKALLRRISERHPNEKLAKFERELLEEINSLGIGPMGLGGRTTALDVKVEVETRHPASYIVGVVIQCWAHRRAFIKVSEGGVKIWQ,not soluble
4,MPGIRGPSEYSQEPPRHPSLKVNAKEPFNAEPPRSALVSSYVTPVDLFYKRNHGPIPIVDHLQSYSVTLTGLIQNPRKLFIKDIRSLPKYNVTATLQCAGNRRTAMSKVRNVRGVGWDVSAIGNAVWGGAKLADVLELVGIPKLTASTNLGARHVEFVSVDRCKEENGGPYKASITLSQATNPEADVLLAYEMNGETLNRDHGFPLRVVVPGVIGARSVKWLDSINVIAEESQGFFMQKDYKMFPPSVNWDNINWSSRRPQMDFPVQSAICSVEDVQMVKPGKVSIKGYAVSGGGRGIERVDISLDGGKNWVEASRTQEPGKQYISEHSSSDKWAWVLFEATIDVSQTTEVIAKAVDSAANVQPENVESVWNLRGVLNTSWHRVLLRLGHSNL,soluble
5,MGDILAHESELLGLVKEYLDFAEFEDTLKTFSKECKIKGKPLCKTVGGSFRDSKSLTIQKDLVAAFDNGDQKVFFDLWEEHISSSIRDGDSFAQKLEFYLHIHFAIYFLKYSVGRPDKEELDEKISYFKTYLETKGAALSQTTEFLPFYALPFVPNPMVHPSFKELFQDSWTPELKLKLEKFLALISKASNTPKLLTIYKENGQSNKEILQQLHQQLVEAERRSVTYLKRYNKIQADYHNLIGVTAELVDSLEATVSGKMITPEYLQSVCVRLFSNQMRQSLAHSVDFTRPGTASTMLRASLAPVKLKDVPLLPSLDYEKLKKDLILGSDRLKAFLLQALRWRLTTSHPGEQRETVLQAYISNDLLDCYSHNQRSVLQLLHSTSDVVRQYMARLINAFASLAEGRLYLAQNTKVLQMLEGRLKEEDKDIITRENVLGALQKFSLRRPLQTAMIQDGLIFWLVDVLKDPDCLSDYTLEYSVALLMNLCLRSTGKNMCAKVAGLVLKVLSDLLGHENHEIQPYVNGALYSILSVPSIREEARAMGMEDILRCFIKEGNAEMIRQIEFIIKQLNSEELPDGVLESDDDEDEDDEEDHDIMEADLDKDELIQPQLGELSGEKLLTTEYLGIMTNTGKTRRKGLANVQWSGDEPLQRPVTPGGHRNGYPV,not soluble
6,MAESRRKYYFPDVTDEQWNDWHWQVLNRIETLDQLKKYVTLTAEEEEGVKESLKVLRMAITPYYLSLIDPENPNCPIRKQAIPTHQELVRAPEDQVDPLSEDEDSPVPGLTHRYPDRVLFLITDKCSMYCRHCTRRRFAGQKDASSPSERIDRCIDYIANTPTVRDVLLSGGDALLVSDERLEYILKRLREIPHVEIVRIGSRTPVVLPQRITPQLVDMLKKYHPVWLNTHFNHPNEVTEEAVEACERMANAGIPLGNQTVLLRGINDCTHVMKRLVHLLVKMRVRPYYIYVCDLSLGIGHFRTPVSKGIEIIENLRGHTSGYAVPTFVVDAPGGGGKIPVMPNYVVSQSPRHVVLRNYEGVITTYTEPENYHEECDCEDCRAGKHKEGVAALSGGQQLAIEPSDLARKKRKFDKN,soluble
7,MSLKIKFKRLDYQEQCRDQILGVFKGIDLKEPENDAQRISNPVFEIGAIKDLLLENIENLRSKQKITQGSVGIDKSLNCDILMETGTGKTFCFLECVYALHKNHHLSKFIVLTPSNAIKLGVLKSVEITREFFKSEYSNTHLESYEDIERFILASNHKCCVLVMTFSAFNKEKNTINKSCLENTNLFNGATSYMQALVSMRPIVIMDEPHRFLGDKTKKYLEQLNALLTLRFGATFKDDYNNLIYTLDSKKAFDCALVKSISVASVGESNECFLELKGIEKKEAAINYTDLENKTQSVKVKEHDNLGVVTQISALEDYIVEKITKTEIRFLNGFNLLLDQKEPFSHLLEGEQEVMLKEAIKSHFEREEGLFKKGIKALCMVFISGVNSYLSENEKPAKLALLFEKLYQQKLEEVLKKPLDENYRAYLECTREDIKKVHGGYFAKSKKEGDETKTIELILKEKEKLLSFDSDLRFIFSQWALQEGWDNPNVMTICKLAPSHSNITKLQQIGRGLRLAVNDKGERITKEHADFDFVNELVVIVPQVEGDFVGAIQQEISEHSLIKQEFSAEELEKSGVVKKGRYGFLLETLEGLGFGEKTGDENFKLTLNQNEFLEKEPELEKLKDEKYLDFEKLKDFLKDRLIGNSRVRDKNERKSEKIKINKENFKKFETLWESLNHQARIAYAIDSESLIDEIVKNINSSFNVSSKIVSVTTHKKVETMGNNAKTEIFERENACVWSLHEFISALSNKVKLSFKSVAKVLENIDENKFNEIKKNEQEGLRRLEELFLEIIYQNIKDKISYQMRETTIKNRKNDAFYDEKGEIREFLDGSLGADKYEIKNSSVREKCLYENFMQVDSEIEKDTIEESNDTKIIVFGKLPRVKIPIGLNQTYSPDFGYVVENNDKKVLLVVETKGVDKKSELRPEEERKISTAKKFFEALKKQGVNIEYKTKMEKDQLSALINEVLNRKDEGHHHHHH,not soluble
8,MTEEIAGFQTSPKAQVQAAFEEIARRSMHALSFLHPSMPVYVSDFTLFEGQWTGCVITPWMLSAVIFPGPDQLWPLRKVSEKIGLQLPYGTMTFTVGELDGVSQYLSCSLMSPLSHSMSIEEGQRLTDDCARMILSLPVTNPDVPHAGRRALLFGRRSGENA,not soluble
9,MIPDFQTLMLPLLKCVSDGQEHKYRDIIEHLAAEFEVTDEERKELLASGSKAVFDNRVGWARTYLKKAGLLDSPKRAILIISDLGREILSKNPPKIDTKYLRRFPAFIEFQNGYRNDGETEEESITEKIHEQTPEEVLDKAYQRIRKSLASELLNKVIDLSPAFFERLVVELLVKMGYGGSIKDAGKALGKSGDEGIDGTIKEDKLGLDIIYIQAKRWRPGNVVGRPELQKFVGALAGQGAKKGIFITTSNFTKEALTYTPRNETKIVLIDGEQLTQLMIDYNLGCTTQQTYELKKLDSDYFGEE,not soluble
10,GPLGSASAAASGKEGVEITYGSAIKLMHEKTKFRLHSHDVPYGSGSGQQSVTGFPGVVDSNSYWIVKPVPGTTEKQGDAVKSGATIRLQHMKTRKWLHSHLHASPISGNLEVSCFGDDTNSDTGDHWKLIIEGSGKTWKQDQRVRLQHIDTSGYLHSHDKKYQRIAGGQQEVCGIREKKADNIWLAAEGVYLPLNESSK,soluble
11,MGSDKIHHHHHHMSDSFDVLWLNASPILKRFDKPLLDYLSGYMRIAQWEYQQTKDEASSIDQAVELLHNFLEWRDRPVHLAGHGMSGAIALTFARRFPQKVRSLTLLSVAAQPANNWQAHYYFQRQLFSISRELVLASTVRSLFGNQPPHTTKKLVAALDKDLEQSPSQHSLFKLVYLPKGGVSMPMMVCGSKSDPVVNPTVLHDWLNWLKPEDKLWECPQGYHFFHYFYPQQVGEEILSFWKRHPSHLLEASALSFSTSTN,not soluble
12,GSPHMDEISETNTIFKLEGVSVLSPLRKKLDLVFYLSNVDGSPVITLLKGNDRELSIYQLNKNIKMASFLPVPEKPNLIYLFMTYTSCEDNKFSEPVVMTLNKENTLNQFKNLGLLDSNVTDFEKCVEYIRKQAILTGFKISNPFVNSTLVDTDAEKINSFHLQCHRGTKEGTLYFLPDHIIFGFKKPILLFDASDIESITYSSITRLTFNASLVTKDGEKYEFSMTDQTEYAKIDDYVKRKQMKDKSMSEELKAKSKSKG,soluble
13,GSASDNAAYWSIATTMRSDNKALGAVSDALGMGAAKVDTASAGMDAAIKVVTDIKAKVVAAKEQGVDKTKVQEEVSQLLDQLKSIGTSASFNGENWLVSSANATKTVVSGFVRDAGGTVSVKTTDYALDANSMLYTEGTPGTIDANSGILNATGATTTVGAKTYTQISVLDMNVGTDDLDNALYSVETALTKMTSAGAKLGSLSARIDLQSGFADKLSDTIEKGVGRLV,not soluble
14,MSLVVEQVKPNTGQEVQQIGQLQATKVKLPSTTKVALTKETQYLRNQVIASPVALFEIPADRGQMTLTITSEISDSVFYPHVMIVDAQGQVVESYEEVTFEYRKPRLHLGNRLVAELDFYPPQGYKSLFVLVYTKQQDLKGVTYVAHPARIDAEARGNYLPEVKDIPVPHTLTGTIELDVSGPSFLSFVRSEDRQTTTSTDAAKTQIQVQPDTQTYYFSSIERAVQANDLPKALSLLDEAKALGIEGAQEVFVKAVNARKEGHHHHHH,soluble
15,KTFAALGSGVIGSGWIARALAHGLDVVAWDPAPGAEAALRARVANAWPALRKQGLAPGAAQERLRFVASIEECVGDADFIQESAPERLDLKLDLHARISAAARPDVLIGSSTSGLLPSEFYAEASHPERCLVGHPFNPVYLLPLVEVVGGERTAAEAVRAAMRVYESLGMRPLHVRKEVPGFIADRLLEALWREALHLVNDGVATTGEIDDAIRFGAGLRWSFMGTFLTYTLAGGNAGMRHFMAQFGPALQLPWTYLPAPELTEALIDRVVEGTAEQQGARSIAELERYRDDCLLAVLGAIRETKARHGFA,not soluble
16,MATKVYIVYYSMYGHVEKLAQEIRKGAASVDGVEAILWQVPETLQEDVLSKMSAPPKSDAPIITPNELAEADGFIFGFPTRFGMMAAQFKAFLDATGGLWRTQQLAGKPAGIFYSTGSQGGGQETTALTAITQLVHHGMIFVPIGYTFGAGMFEMENVKGGSPYGAGTFAGDGSRQPTELELGQAFHQGKYIAAISKKLKGPAAA,soluble
17,MTESIDGNPWRILELVAENEYHLEQDNNVDQLEQFSVIPGFQEELVEFAKKKLLDSIEVQQFLVERDIEFQEKNIASLIDELSDNQDDESNSKEIHLELKSSKNKYEGLRKKIASFKGRQQKAVGFLNSGLEEIRILTSPNDKFCYKVKNASWRCSVDNSIDLQKIKLICEKLIGLEKKMEVTFWTSEIMKLLENLDQRHYAVAFGIIIGMATWEYENSEKYHLLALIHLSIGRDETKTDVLLYWENWENESIEQSIVSLRILMIFYMKISIDDLECRENFEFRICQVIVFILEHKEFESSHLTMITELLGSIEQRFGNFTEMCDIMFTHFEAKAQMFDSYEAKMLVFMRNEHLSLLQTQHIDQCMDTLNILILLYLKIKIDKWTYREIIEQRISQFIICILEHTEFQSIHLTLIIQHLESIEQQFGCFSGKFDNMFKIFELKLQILDRPEQERVSKWIKSLSLRSSISEFSSEHSHSTVTVIEHSEKTYELEQNVRIDLEETLKLEKRIEEVSIEESKKKQEKLELKQREEEEARIKEEEEKQRKILEEEARKKQEEEEARLKAEEELKIYEEEKRKKELEEERKKKEELEIKRKAEEEKKKKALEEEKKRKIAEEKARQKQEKERKKQANKCTFLQNFTFIRHQHPSQTYNERVLDGKVVGLYFSAHWCPPSRDFTPVLAQFYSQVEDNFEILFVSSDNNTQEMNFYLQNFHGDWFHLPLNLCNSMKHRNTKNHIPALIIMKPDGTVITDDGRNLVSQWINDPKALVNHWKAMLN,not soluble
